Columns and labels:
CD4-Ig = assay: pull-down
[1] = target: HIV-1YU2 gp41 transmembrane envelope glycoprotein (HIV-1 YU2) (UniProt P35961); assay: gp120-gp41 association index
soluble CD4 = soluble CD4 (UniProt P01730); assay: SPR
CCR5 = CCR5 (UniProt P51681); assay: radioligand binding

Row | Substance | CD4-Ig binding (relative to wild type) (CD4-Ig) | association index (relative to wild type) [1] | other results
1 | HIV-1YU2 gp120 A60G (natural protein) | 1.46 | – | –
2 | HIV-1YU2 gp120 A73S (natural protein) | 1.19 | – | –
3 | HIV-1YU2 gp120 A221G (natural protein) | 0.76 | – | –
4 | HIV-1YU2 gp120 D57A (natural protein) | 0.91 | 0.62 | –
5 | HIV-1YU2 gp120 D78A (natural protein) | 1.13 | – | –
6 | HIV-1YU2 gp120 D107A (natural protein) | 0.66 | – | Kd (soluble CD4): 74.3 nM; koff (soluble CD4): 0.00142 s⁻¹; kon (soluble CD4): 19100 M⁻¹ s⁻¹; fold reduction of CCR5 binding against wt gp120 (CCR5): 2 fold
7 | HIV-1YU2 gp120 D107A/S375W (natural protein) | 0.76 | 0.61 | –
8 | HIV-1YU2 gp120 D107Q (natural protein) | 0.69 | – | –
9 | HIV-1YU2 gp120 D113A (natural protein) | 1.79 | – | –
10 | HIV-1YU2 gp120 E47A (natural protein) | – | 0.64 | –
11 | HIV-1YU2 gp120 E91A (natural protein) | 1.45 | – | –
12 | HIV-1YU2 gp120 F53A (natural protein) | 0.29 | 0.25 | –
13 | HIV-1YU2 gp120 F210A (natural protein) | – | 1.33 | –
14 | HIV-1YU2 gp120 F223A (natural protein) | 0.85 | – | –
15 | HIV-1YU2 gp120 H66A (natural protein) | – | – | Kd (soluble CD4): 172 nM; koff (soluble CD4): 0.000569 s⁻¹; kon (soluble CD4): 3320 M⁻¹ s⁻¹
16 | HIV-1YU2 gp120 H66A/S375W (natural protein) | – | – | Kd (soluble CD4): 7.67 nM; koff (soluble CD4): 5.02e-06 s⁻¹; kon (soluble CD4): 655 M⁻¹ s⁻¹
17 | HIV-1YU2 gp120 H72A (natural protein) | 1.11 | – | –
18 | HIV-1YU2 gp120 I108A (natural protein) | 1.48 | – | –
19 | HIV-1YU2 gp120 I109A (natural protein) | 0.49 | – | –
20 | HIV-1YU2 gp120 L52A (natural protein) | 0.23 | 0.25 | –
21 | HIV-1YU2 gp120 L111A (natural protein) | – | 0.28 | Kd (soluble CD4): 32.3 nM; koff (soluble CD4): 0.000426 s⁻¹; kon (soluble CD4): 13200 M⁻¹ s⁻¹; fold reduction of CCR5 binding against wt gp120 (CCR5): 2 fold
22 | HIV-1YU2 gp120 L111A/S375W (natural protein) | 1.32 | – | Kd (soluble CD4): 1.12 nM; koff (soluble CD4): 1.92e-05 s⁻¹; kon (soluble CD4): 17100 M⁻¹ s⁻¹
23 | HIV-1YU2 gp120 L111F (natural protein) | – | – | Kd (soluble CD4): 13.3 nM; koff (soluble CD4): 0.000204 s⁻¹; kon (soluble CD4): 15300 M⁻¹ s⁻¹
24 | HIV-1YU2 gp120 L111W (natural protein) | – | – | Kd (soluble CD4): 621 nM; kon (soluble CD4): 2090 M⁻¹ s⁻¹
25 | HIV-1YU2 gp120 L116A (natural protein) | 0.67 | – | –
26 | HIV-1YU2 gp120 M104A (natural protein) | 1.25 | – | –
27 | HIV-1YU2 gp120 N80A (natural protein) | 1.24 | 0.65 | –

Row | Substance | CD4-Ig binding (relative to wild type) (CD4-Ig) | association index (relative to wild type) [1] | other results
28 | HIV-1YU2 gp120 N99A (natural protein) | 0.97 | 0.7 | –
29 | HIV-1YU2 gp120 P76A (natural protein) | 1.02 | 0.64 | –
30 | HIV-1YU2 gp120 P79A (natural protein) | 1.29 | 0.64 | –
31 | HIV-1YU2 gp120 P212A (natural protein) | 0.65 | – | –
32 | HIV-1YU2 gp120 Q82A (natural protein) | 1.12 | 1.03 | –
33 | HIV-1YU2 gp120 Q103A (natural protein) | 1.15 | 1.07 | –
34 | HIV-1YU2 gp120 Q103R (natural protein) | 0.74 | – | –
35 | HIV-1YU2 gp120 Q114N (natural protein) | 1.09 | 0.74 | –
36 | HIV-1YU2 gp120 S110N (natural protein) | – | 0.66 | –
37 | HIV-1YU2 gp120 S110W (natural protein) | – | 0.49 | –
38 | HIV-1YU2 gp120 S115A (natural protein) | 1.36 | 1.12 | –
39 | HIV-1YU2 gp120 S375W (natural protein) | 1.12 | – | Kd (soluble CD4): 0.0469 nM; koff (soluble CD4): 6.49e-07 s⁻¹; kon (soluble CD4): 13800 M⁻¹ s⁻¹
40 | HIV-1YU2 gp120 T49A (natural protein) | 1.14 | 1.07 | –
41 | HIV-1YU2 gp120 T51A (natural protein) | 1.02 | 1.06 | –
42 | HIV-1YU2 gp120 T63A (natural protein) | 1.79 | – | –
43 | HIV-1YU2 gp120 T71A (natural protein) | 0.85 | – | –
44 | HIV-1YU2 gp120 T77A (natural protein) | 1.52 | – | –
45 | HIV-1YU2 gp120 V68A (natural protein) | 1.12 | – | –
46 | HIV-1YU2 gp120 V89A (natural protein) | 0.97 | – | –
47 | HIV-1YU2 gp120 W69L (natural protein) | 0.64 | 0.89 | Kd (soluble CD4): 54.2 nM; koff (soluble CD4): 0.000526 s⁻¹; kon (soluble CD4): 9690 M⁻¹ s⁻¹; fold reduction of CCR5 binding against wt gp120 (CCR5): 2 fold
48 | HIV-1YU2 gp120 W69L/L111W (natural protein) | – | 0.28 | Kd (soluble CD4): 871 nM; koff (soluble CD4): 0.000483 s⁻¹; kon (soluble CD4): 554 M⁻¹ s⁻¹
49 | HIV-1YU2 gp120 W69L/S375W (natural protein) | 1.11 | 0.81 | Kd (soluble CD4): 0.846 nM; koff (soluble CD4): 9.98e-06 s⁻¹; kon (soluble CD4): 11800 M⁻¹ s⁻¹
50 | HIV-1YU2 gp120 W96A (natural protein) | 0.66 | 0.65 | –
51 | HIV-1YU2 gp120 W112A (natural protein) | 0.25 | – | –
52 | HIV-1YU2 gp120 W437R (natural protein) | – | 0.64 | –
53 | HIV-1YU2 gp120 Y61A (natural protein) | 1.33 | 0.89 | –
54 | HIV-1YU2 gp120 exterior envelope glycoprotein, wild-type (from UniProt P35961 32-498) (natural protein) | 1 | – | –
